Source: US20210139581A1 (Alector, published 2021)
Read-outs that look alike come from different tables or passages of the source.

Tests used:
human CD33 [1] = molecular target: T1, human CD33 (human, UniProt P20138 18-259, limits assumed); test: BLI (ForteBio), Fab 100 nM on immobilized CD33
T1 construct: Human CD33 immobilized on the BLI sensor tip or the BIAcore C1 chip; also called Siglec-3
Protocol: (§1) The affinities (KD) of the humanized antibodies for human CD33 were measured for each antibody by BioLayer Interferometry in a ForteBio assay according to standard techniques (Estep et al. (2013) MAbs 5(2): 270-8). […] The assay was carried out at room temperature.
The affinities of AB-H14 and its affinity-matured variants (Table 15) and AB-H63 and its affinity-matured variants (Table 16), for human CD33 were measured by Fortebio assay according to the method described in Example 1 above.

[2] = molecular target: T2, human CD33 on primary human monocyte-derived dendritic cells (human, UniProt P20138 18-364); test: cell-based or functional assay
T2 sequence (P20138 18-364): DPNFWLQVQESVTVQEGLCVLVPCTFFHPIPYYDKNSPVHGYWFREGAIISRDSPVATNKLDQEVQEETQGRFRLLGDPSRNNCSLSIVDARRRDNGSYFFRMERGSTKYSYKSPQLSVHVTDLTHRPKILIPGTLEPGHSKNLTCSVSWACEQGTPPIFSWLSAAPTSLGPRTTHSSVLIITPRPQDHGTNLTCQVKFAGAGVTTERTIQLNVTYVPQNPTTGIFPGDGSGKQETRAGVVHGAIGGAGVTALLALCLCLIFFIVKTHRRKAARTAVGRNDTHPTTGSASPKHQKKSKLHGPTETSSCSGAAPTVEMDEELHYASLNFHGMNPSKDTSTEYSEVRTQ

human CD33 [3] = molecular target: T1, human CD33; test: BLI (ForteBio), Fab 100 nM on immobilized CD33; remark: listed apart in the source
Protocol: as §1
The affinity parameters of two of the antibodies, 64.1.2 and 64.1.8, were measured in a separate experiment by BIAcore, where they were directly compared to the parental antibody, AB-64.1, the parental humanized antibody, AB-H64, and the Chimeric Ab.

[4] = molecular target: T2, human CD33 on primary human …; test: cell-based or functional assay; remark: listed apart in the source
[5] = molecular target: T2, human CD33 on primary human …; test: cell-based or functional assay; remark: listed apart in the source
human CD33 [6] = molecular target: T1, human CD33; test: SPR (BIAcore), Fab over CD33 on C1 chip
Protocol: The affinity parameters for 10 of the 88 humanized antibodies (AB-H1, AB-H3, AB-H6, AB-H11, AB-H22, AB-H24, AB-H26, AB-H63, AB-H64, and AB-H71) were measured in a separate experiment by a more sensitive technique, surface plasmon resonance (BIAcore), and compared to Chimeric Ab and Chimeric Ab #2. BIAcore measurements were performed as follows: human CD33 was immobilized on the surface of a C1 chip, and Fabs were injected for 300 s to monitor association, followed by a 900 s flow in running buffer to monitor dissociation. The Fabs were measured at 5 concentrations: a high concentration of 27 nM and 3-fold serial dilutions.

[7] = molecular target: T2, human CD33 on primary human …; test: cell-based or functional assay; remark: listed apart in the source

T1 sequence (P20138 18-259 limits assumed): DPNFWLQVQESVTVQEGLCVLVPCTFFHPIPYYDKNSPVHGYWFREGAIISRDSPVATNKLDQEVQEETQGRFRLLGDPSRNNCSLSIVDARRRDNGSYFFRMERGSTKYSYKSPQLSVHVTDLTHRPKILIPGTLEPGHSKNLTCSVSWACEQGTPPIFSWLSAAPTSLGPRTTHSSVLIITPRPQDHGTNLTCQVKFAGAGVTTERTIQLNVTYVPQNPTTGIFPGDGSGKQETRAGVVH

Binder | Fold affinity improvement over parental Ab (AB-H14) (human CD33 [1]) [fold] | Kd (human CD33 [1]) [nM] | koff (human CD33 [1]) [s⁻¹] | kon (human CD33 [1]) [M⁻¹ s⁻¹] | Maximal Downregulation (% CD33 remaining) [2] [%] | Receptor downregulation (EC50) [2] [nM] | Kd (human CD33 [3]) [nM] | Receptor downregulation (% remaining at 0.16 µg/mL antibody) [4] [%] | also measured
AB-14.4 (antibody, V domains shown) VH: QVQLVQSGAEVKKPGASVKVSCKASGYTFTDYNYHWVRQAPGQGLEWIGFIYPSNGITGYAQKFQGRVTMTVDTSTSTVYMELSSLRSEDTAVYYCADSTVDYFDYWGQGTLVTVSS VL: DIQMTQSPSSLSASVGDRVTITCRASQDVSTSTYSYMHWYQQKPGKAPKLLIKYVSNLESGVPSRFSGSGSGTDFTLTISSLQPEDFATYYCQHSWEIPLTFGQGTKLEIK | 13 | 0.224 | 0.0002 | 895000 | 27.6 | 0.0582 |  |  | 
AB-64.1.4 (antibody, V domains shown, Variant of AB-64.1) VH: QVQLVQSGAEVKKPGASVKISCKASGYTFTDYNLHWVRQAPGQGLEWIGFIYPSNGITGYAQKFQGRATLTVDTSTSTAYMELSSLRSEDTAVYYCARSDVDYFDYWGQGTLLTVSS VL: DIVLTQSPDSLAVSLGERATINCRASQSVSTSTYSYMHWYQQKPGQPPKLLIKYASNLESGVPDRFSGSGSGTDFTLTISSLQAEDVAVYYCQHSWEIPLTFGQGTKLEIK |  |  |  |  |  |  | 0.639 | 38 | 
AB-14.7 (antibody, V domains shown) VH: QVQLVQSGAEVKKPGASVKVSCKASGYTFTDYNYHWVRQAPGQGLEWIGFIYPSNGITGYAQKFQGRVTMTVDTSTSTVYMELSSLRSEDTAVYYCARSDVDYFDYWGQGTLVTVSS VL: DIQMTQSPSSLSASVGDRVTITCRASQSVGTSTYSYMHWYQQKPGKAPKLLIKYASNLESGVPSRFSGSGSGTDFTLTISSLQPEDFATYYCQHSWEIPLTFGQGTKLEIK | 11.8 | 0.246 | 0.0002 | 813000 | 23.4 | 0.0351 |  |  | 
AB-14.9 (antibody, V domains shown) VH: QVQLVQSGAEVKKPGASVKVSCKASGYTFTDYNYHWVRQAPGQGLEWIGFIYPSNGITGYAQKFQGRVTMTVDTSTSTVYMELSSLRSEDTAVYYCARSDVDYFDYWGQGTLVTVSS VL: GIQMTQSPSSLSASVGDRVTITCRASQSVGTSTYSYMHWYQQKPGKAPKLLIKYAVNLESGVPSRFSGSGSGTDFTLTISSLQPEDFATYYCQHSWEIPLTFGQGTKLEIK | 13.4 | 0.217 | 0.0002 | 921000 | 26.1 | 0.0399 |  |  | 
AB-14.8 (antibody, V domains shown) VH: QVQLVQSGAEVKKPGASVKVSCKASGYTFTDYNYHWVRQAPGQGLEWIGFIYPSNGITGYAQKFQGRVTMTVDTSTSTVYMELSSLRSEDTAVYYCARSDVDYFDYWGQGTLVTVSS VL: DIQMTQSPSSLPASVGDRVTITCRASQSVGTSTYSYMHWYQQKPGKAPKLLIKYASNLGSGVPSRFSGSGSGTDFTLTISSLQPEDFATYYCQHSWEIPLTFGQGTKLEIK | 13.6 | 0.214 | 0.0002 | 935000 | 21.2 | 0.0234 |  |  | 
AB-14.6 (antibody, V domains shown) VH: QVQLVQSGAEVKKPGASVKVSCKASGYTFTDYNYHWVRQAPGQGLEWIGFIYPSNGITGYAQKFQGRVTMTVDTSTSTVYMELSSLRSEDTAVYYCARSDVDYFDYWGQGTLVTVSS VL: DIQMTQSPSSLSASVGDRVTITCRASQSVGTSTYSYMHWYQQKPGKAPKLLIKYASALESGVPSRFSGSGSGTDFTLTISSLQPEDFATYYCQHSWEIPLTFGQGTKLEIK | 9.83 | 0.295 | 0.000264 | 894000 | 24 | 0.0324 |  |  | 
AB-14.5 (antibody, V domains shown) VH: QVQLVQSGAEVKKPGASVKVSCKASGYTFTDYNYHWVRQAPGQGLEWIGFIYPSNGITGYAQKFQGRVTMTVDTSTSTVYMELSSLRSEDTAVYYCARSDVDYFDYWGQGTLVTVSS VL: DIQMTQSPSSLSASVGDRVTITCRASQDVSTSTYSYMHWYQRKPGKAPKLLIKYASNLESGVPSRFSGSGSGTDFTLTISSLQPEDFATYYCQHSWEIPLTFGQGTKLEIK | 13.7 | 0.212 | 0.0002 | 945000 | 26.4 | 0.0342 |  |  | 
Chimeric Ab #2 (antibody, V domains shown, Chimeric Ab with a VH-FR3 mutation that removes the predicted N-glycosylation site) VH: EVQLQQSGPELVKPGASVKISCKASGYTFTDYNLHWVKLSHGKSLEWIGFIYPSNGITGYNQKFKNKATLTVDTSSSTAYMELRSLTSEDSAVYYCARSTVDYFDYWGQGTTLTVSS VL: DIVLTQSPASLAVSLGQRATMSCRASQSVSTSTYSYMHWYQQKPGQPPKLLIKYASNLESGVPARFSGSGSGTDFTLNIHPVEEEDTATYYCQHSWEIPLTFGAGTKLELK |  |  |  |  |  |  |  |  | Maximal Downregulation (% CD33 remaining) [5]: 23.2%; Receptor downregulation (EC50) [5]: 0.119 nM; Fold Change to Chimeric Ab (human CD33 [6]): 0.56 fold; Kd (human CD33 [6]): 2.89 nM; koff (human CD33 [6]): 0.00286 s⁻¹; kon (human CD33 [6]): 991000 M⁻¹ s⁻¹; Maximal Downregulation (% CD33 remaining) [7]: 23.2%; Receptor downregulation (EC50) [7]: 0.119 nM

Second part, led by results:

Fold affinity improvement over parental Ab (AB-H14) (human CD33 [1]) [fold] | Kd (human CD33 [1]) [nM] | koff (human CD33 [1]) [s⁻¹] | kon (human CD33 [1]) [M⁻¹ s⁻¹] | Maximal Downregulation (% CD33 remaining) [2] [%] | Receptor downregulation (EC50) [2] [nM] | Kd (human CD33 [3]) [nM] | Receptor downregulation (% remaining at 0.16 µg/mL antibody) [4] [%] | Binder | also measured
 |  |  |  |  |  | 0.836 | 37 | AB-64.1.6 (antibody, V domains shown, Variant of AB-64.1) VH: QVQLVQSGAEVKKPGASVKISCKASGYTFTDYNLHWVRQAPGQGLEWIGFIYPSNGITGYAQKFQGRATLTVDNSASTAYMELSSLRSEDTAVYYCARSDVDYFDYWGQGTLLTVSS VL: DIVLTQSPDSLAVSLGERATINCRASQSVSTSTYSYMHWYQQKPGQPPKLLIKYASNLESGVPDRFSGSGSGTDFTLTISSLQAEDVAVYYCQHSWEIPLTFGQGTKLEIK | 
 |  |  |  |  |  | 0.697 | 37.3 | AB-64.1.5 (antibody, V domains shown, Variant of AB-64.1) VH: QVQLVQSGAEVKKPGASVKISCKASGYTFTDYNLHWVRQAPGQGLEWIGFIYPSNGITGYAQKFQGRATLTVDQSTSTAYMELSSLRSEDTAVYYCARSDVDYFDYWGQGTLLTVSS VL: DIVLTQSPDSLAVSLGERATINCRASQSVSTSTYSYMHWYQQKPGQPPKLLIKYASNLESGVPDRFSGSGSGTDFTLTISSLQAEDVAVYYCQHSWEIPLTFGQGTKLEIK | 
13.2 | 0.221 | 0.0002 | 906000 | 20.9 | 0.0494 |  |  | AB-14.10 (antibody, V domains shown) VH: QVQLVQSGAEVKKPGASVKVSCKASGYTFTDYNYHWVRQAPGQGLEWIGFIYPSNGITGYAQKFQGRVTMTVDTSTSTVYMELSSLRSEDTAVYYCARSDVDYFDYWGQGTLVTVSS VL: DIQMTQSPSSLSASVGDRVTITCRASQSVSASTYSYMHWYQQKPGKAPKLLIKYASNLESGVPSRFSGSGSGTDFTLTISSLQPEDLATYYCQHSWEIPLTFGQGTKLEIK | 
 |  |  |  |  |  | 0.647 | 38.5 | AB-64.1.3 (antibody, V domains shown, Variant of AB-64.1) VH: QVQLVQSGAEVKKPGASVKISCKASGYTFTDYNLHWVRQAPGQGLEWIGFIYPSNVITGYAQKFQGRATLTVDNSTSTAYMELSSLRSEDTAVYYCARSDVDYFDYWGQGTLLTVSS VL: DIVLTQSPDSLAVSLGERATINCRASQSVSTSTYSYMHWYQQKPGQPPKLLIKYASNLESGVPDRFSGSGSGTDFTLTISSLQAEDVAVYYCQHSWEIPLTFGQGTKLEIK | 
14.1 | 0.205 | 0.0002 | 974000 | 27.5 | 0.047 |  |  | AB-14.11 (antibody, V domains shown) VH: QVQLVQSGAEVKKPGASVKVSCKASGYTFTDYNYHWVRQAPGQGLEWIGFIYPSNGITGYAQKFQGRVTMTVDTSTSTVYMELSSLRSEDTAVYYCARSSVDYFDYWGQGTLVTVSS VL: DIQMTQSPSSLSASVGDRVTITCRASQDVSTSTYSYMHWYQQKPGKAPKLLIKYVSNLESGVPSRFSGSGSGTDFTLTISSLQPEDFATYYCQHSWEIPLTFGQGTKLEIK | 
 |  |  |  |  |  | 0.429 | 37 | AB-64.1.1 (antibody, V domains shown, Variant of AB-64.1) VH: QVQLVQSGAEVKKPGASVKISCKASGYTFTDYNLHWVRQAPGQGLEWIGFIYPSNQITGYAQKFQGRATLTVDNSTSTAYMELSSLRSEDTAVYYCARSDVDYFDYWGQGTLLTVSS VL: DIVLTQSPDSLAVSLGERATINCRASQSVSTSTYSYMHWYQQKPGQPPKLLIKYASNLESGVPDRFSGSGSGTDFTLTISSLQAEDVAVYYCQHSWEIPLTFGQGTKLEIK | 
